T1: D2H receptor domain (human D2H transporter, amino acid residues 387-685), His-tag fusion protein (human, UniProt Q07837 387-685)
T1 construct: purified under denaturing conditions; also called recombinant D2H; not shown: poly-histidine tag (pET vector) at the NH2-terminal end
T1 sequence: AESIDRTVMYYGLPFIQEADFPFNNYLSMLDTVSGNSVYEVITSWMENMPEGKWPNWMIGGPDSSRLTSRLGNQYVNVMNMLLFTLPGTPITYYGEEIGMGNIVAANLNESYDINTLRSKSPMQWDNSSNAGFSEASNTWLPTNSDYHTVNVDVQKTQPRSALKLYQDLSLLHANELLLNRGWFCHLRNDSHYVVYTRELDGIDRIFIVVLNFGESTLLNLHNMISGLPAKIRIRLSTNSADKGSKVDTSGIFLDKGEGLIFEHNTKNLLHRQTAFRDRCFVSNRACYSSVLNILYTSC


Legend:
[1] = molecular target: T2, hSI receptor domain (human sucrase-isomaltase complex, amino acid residues 272-667), His-tag fusion protein (human, UniProt P14410 272-667); experiment: phage ELISA, OD on hSI over OD on BSA
T2 construct: also called hS1; recombinant hSI; not shown: poly-histidine tag (pET vector) at the NH2-terminal end
T2 sequence (P14410 272-667, one chain of several): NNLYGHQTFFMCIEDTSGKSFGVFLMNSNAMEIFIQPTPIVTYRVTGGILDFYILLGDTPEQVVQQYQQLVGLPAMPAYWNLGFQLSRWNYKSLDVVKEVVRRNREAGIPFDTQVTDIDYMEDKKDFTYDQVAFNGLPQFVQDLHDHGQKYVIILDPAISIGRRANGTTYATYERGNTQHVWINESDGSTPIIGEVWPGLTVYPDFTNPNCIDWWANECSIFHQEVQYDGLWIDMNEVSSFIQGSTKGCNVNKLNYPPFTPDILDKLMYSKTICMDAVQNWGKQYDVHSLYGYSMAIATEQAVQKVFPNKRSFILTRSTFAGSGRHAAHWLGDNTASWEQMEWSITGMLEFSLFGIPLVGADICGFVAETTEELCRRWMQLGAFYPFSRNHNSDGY
Procedure: (§1) 6.6. Receptor ELISA Procedure 96 well plates were coated overnight with GIT receptor, BSA and, optionally, IDE (insulin degrading enzyme, an irrelevant His-fusion protein)or hTF. The plates were blocked for one hour with 0.5% BSA-PBS. After clarification, the amplified phage were diluted 1:100 in […] plus 0.05% Tween 20 in PBS and added to the plates. Following incubation of the plates on a rotator for 1 to 2 hours, the plates were washed 5 times with 1% BSA plus 0.05% Tween 20 in PBS. […] After the plates were washed 5 times, as described above, TMB substrate was added to the wells. The plates were read at 650 nm absorbance.

[2] = molecular target: T2, hSI receptor domain (human …); experiment: phage ELISA, plate coated with hSI domain
Procedure: as §1

[3] = molecular target: T1, D2H receptor domain (human D2H …); experiment: phage ELISA, plate coated with D2H domain
Procedure: as §1
Binding to fixed Caco-2 cells, D2H and BSA was examined.

Binder	hSI/BSA [1]	OD [2]	OD [3]
SNi38 (Assayed as M13 phage clone displaying the insert) peptide: RGAADQRRGWSENLGLPRVGWDAIAHNSYTFTSRRPRPPAETVESCLAKPHTENSFTNVWKDDKTLDRYANYEGCLWNATGVVVCTGDETQCYGTWVPIGLAIPENEGGGSEGGGSEGGGSEGGGTKPPEYGDTPIPGYTYINPLDGTYPPGTEQNPANPNPSLEESQPLNTFMFQNNRFRNRQGALTVYTGTVTQGTDPVKTYYQYTPVSSKAMYDAYWNGKFRDCAFHSGFNEDPFVCEYQGQSSDLPQPPVNAGGGSGGGSGGGSEGGGSEGGGSEGGGSEGGGSGGGSGSGDFDYEKMANANKGAMTENADENALQSDAKGKLDSVATDYGAAIDGFIGDVSGLANGNGATGDFAGSNSQMAQVGDGDNSPLMNNFRQYLPSLPQSVECRPFVFSAGKPYEFSIDCDKINLFRGVFAFLLYVATFMYVFSTFANILRNKES	6 ratio	0.466 OD	
DCX26 (Assayed as M13 phage clone displaying the insert) peptide: SGRTTSEISGLWGWGDDRSGYGWGNTLRPNYIPYRQATNRHRYTAETVESCLAKPHTENSFTNVWKDDKTLDRYANYEGCLWNATGVVVCTGDETQCYGTWVPIGLAIPENEGGGSEGGGSEGGGSEGGGTKPPEYGDTPIPGYTYINPLDGTYPPGTEQNPANPNPSLEESQPLNTFMFQNNRFRNRQGALTVYTGTVTQGTDPVKTYYQYTPVSSKAMYDAYWNGKFRDCAFHSGFNEDPFVCEYQGQSSDLPQPPVNAGGGSGGGSGGGSEGGGSEGGGSEGGGSEGGGSGGGSGSGDFDYEKMANANKGAMTENADENALQSDAKGKLDSVATDYGAAIDGFIGDVSGLANGNGATGDFAGSNSQMAQVGDGDNSPLMNNFRQYLPSLPQSVECRPFVFSAGKPYEFSIDCDKINLFRGVFAFLLYVATFMYVFSTFANILRNKES			0.956 OD
SNiAX2 (Assayed as M13 phage clone displaying the insert) peptide: SDSDGDHYGLRGGVRCSLRDRGCGLALSTVHAGPPSFYPKLSSPAETVESCLAKPHTENSFTNVWKDDKTLDRYANYEGCLWNATGVVVCTGDETQCYGTWVPIGLAIPENEGGGSEGGGSEGGGSEGGGTKPPEYGDTPIPGYTYINPLDGTYPPGTEQNPANPNPSLEESQPLNTFMFQNNRFRNRQGALTVYTGTVTQGTDPVKTYYQYTPVSSKAMYDAYWNGKFRDCAFHSGFNEDPFVCEYQGQSSDLPQPPVNAGGGSGGGSGGGSEGGGSEGGGSEGGGSEGGGSGGGSGSGDFDYEKMANANKGAMTENADENALQSDAKGKLDSVATDYGAAIDGFIGDVSGLANGNGATGDFAGSNSQMAQVGDGDNSPLMNNFRQYLPSLPQSVECRPFVFSAGKPYEFSIDCDKINLFRGVFAFLLYVATFMYVFSTFANILRNKES	6 ratio	0.383 OD	
SNiAX8 (Assayed as M13 phage clone displaying the insert) peptide: SPKLSSVGVMTKVTELPTEGPNAISIPISATLGPRNPLRAETVESCLAKPHTENSFTNVWKDDKTLDRYANYEGCLWNATGVVVCTGDETQCYGTWVPIGLAIPENEGGGSEGGGSEGGGSEGGGTKPPEYGDTPIPGYTYINPLDGTYPPGTEQNPANPNPSLEESQPLNTFMFQNNRFRNRQGALTVYTGTVTQGTDPVKTYYQYTPVSSKAMYDAYWNGKFRDCAFHSGFNEDPFVCEYQGQSSDLPQPPVNAGGGSGGGSGGGSEGGGSEGGGSEGGGSEGGGSGGGSGSGDFDYEKMANANKGAMTENADENALQSDAKGKLDSVATDYGAAIDGFIGDVSGLANGNGATGDFAGSNSQMAQVGDGDNSPLMNNFRQYLPSLPQSVECRPFVFSAGKPYEFSIDCDKINLFRGVFAFLLYVATFMYVFSTFANILRNKES	5 ratio	0.342 OD	
SNi45 (Assayed as M13 phage clone displaying the insert) peptide: SGGEVSSWGRVNDLCARVSWTGCGTARSARTDNKGFLPKHSSLRAETVESCLAKPHTENSFTNVWKDDKTLDRYANYEGCLWNATGVVVCTGDETQCYGTWVPIGLAIPENEGGGSEGGGSEGGGSEGGGTKPPEYGDTPIPGYTYINPLDGTYPPGTEQNPANPNPSLEESQPLNTFMFQNNRFRNRQGALTVYTGTVTQGTDPVKTYYQYTPVSSKAMYDAYWNGKFRDCAFHSGFNEDPFVCEYQGQSSDLPQPPVNAGGGSGGGSGGGSEGGGSEGGGSEGGGSEGGGSGGGSGSGDFDYEKMANANKGAMTENADENALQSDAKGKLDSVATDYGAAIDGFIGDVSGLANGNGATGDFAGSNSQMAQVGDGDNSPLMNNFRQYLPSLPQSVECRPFVFSAGKPYEFSIDCDKINLFRGVFAFLLYVATFMYVFSTFANILRNKES	9 ratio	0.518 OD	
SNi28 (Assayed as M13 phage clone displaying the insert) peptide: SHSGGMNRAYGDVFRELRDRWNATSHHTRPTPQLPRGPNAETVESCLAKPHTENSFTNVWKDDKTLDRYANYEGCLWNATGVVVCTGDETQCYGTWVPIGLAIPENEGGGSEGGGSEGGGSEGGGTKPPEYGDTPIPGYTYINPLDGTYPPGTEQNPANPNPSLEESQPLNTFMFQNNRFRNRQGALTVYTGTVTQGTDPVKTYYQYTPVSSKAMYDAYWNGKFRDCAFHSGFNEDPFVCEYQGQSSDLPQPPVNAGGGSGGGSGGGSEGGGSEGGGSEGGGSEGGGSGGGSGSGDFDYEKMANANKGAMTENADENALQSDAKGKLDSVATDYGAAIDGFIGDVSGLANGNGATGDFAGSNSQMAQVGDGDNSPLMNNFRQYLPSLPQSVECRPFVFSAGKPYEFSIDCDKINLFRGVFAFLLYVATFMYVFSTFANILRNKES	8 ratio	0.942 OD	
DCX33 (Assayed as M13 phage clone displaying the insert) peptide: RWNWTVLPATGGHYWTRSTDYHAINNHRPSIPHQHPTPIAETVESCLAKPHTENSFTNVWKDDKTLDRYANYEGCLWNATGVVVCTGDETQCYGTWVPIGLAIPENEGGGSEGGGSEGGGSEGGGTKPPEYGDTPIPGYTYINPLDGTYPPGTEQNPANPNPSLEESQPLNTFMFQNNRFRNRQGALTVYTGTVTQGTDPVKTYYQYTPVSSKAMYDAYWNGKFRDCAFHSGFNEDPFVCEYQGQSSDLPQPPVNAGGGSGGGSGGGSEGGGSEGGGSEGGGSEGGGSGGGSGSGDFDYEKMANANKGAMTENADENALQSDAKGKLDSVATDYGAAIDGFIGDVSGLANGNGATGDFAGSNSQMAQVGDGDNSPLMNNFRQYLPSLPQSVECRPFVFSAGKPYEFSIDCDKINLFRGVFAFLLYVATFMYVFSTFANILRNKES			0.616 OD
SNi34 (Assayed as M13 phage clone displaying the insert) peptide: SPCGGSWGRFMQGGLFGGRTDGCGAHRNRTSASLEPPSSDYAETVESCLAKPHTENSFTNVWKDDKTLDRYANYEGCLWNATGVVVCTGDETQCYGTWVPIGLAIPENEGGGSEGGGSEGGGSEGGGTKPPEYGDTPIPGYTYINPLDGTYPPGTEQNPANPNPSLEESQPLNTFMFQNNRFRNRQGALTVYTGTVTQGTDPVKTYYQYTPVSSKAMYDAYWNGKFRDCAFHSGFNEDPFVCEYQGQSSDLPQPPVNAGGGSGGGSGGGSEGGGSEGGGSEGGGSEGGGSGGGSGSGDFDYEKMANANKGAMTENADENALQSDAKGKLDSVATDYGAAIDGFIGDVSGLANGNGATGDFAGSNSQMAQVGDGDNSPLMNNFRQYLPSLPQSVECRPFVFSAGKPYEFSIDCDKINLFRGVFAFLLYVATFMYVFSTFANILRNKES	7 ratio	0.761 OD	
SNiAX6 (Assayed as M13 phage clone displaying the insert) peptide: RTTTAKGCLLGSFGVLSGCSFTPTSPPPHLGYPPHSVNAETVESCLAKPHTENSFTNVWKDDKTLDRYANYEGCLWNATGVVVCTGDETQCYGTWVPIGLAIPENEGGGSEGGGSEGGGSEGGGTKPPEYGDTPIPGYTYINPLDGTYPPGTEQNPANPNPSLEESQPLNTFMFQNNRFRNRQGALTVYTGTVTQGTDPVKTYYQYTPVSSKAMYDAYWNGKFRDCAFHSGFNEDPFVCEYQGQSSDLPQPPVNAGGGSGGGSGGGSEGGGSEGGGSEGGGSEGGGSGGGSGSGDFDYEKMANANKGAMTENADENALQSDAKGKLDSVATDYGAAIDGFIGDVSGLANGNGATGDFAGSNSQMAQVGDGDNSPLMNNFRQYLPSLPQSVECRPFVFSAGKPYEFSIDCDKINLFRGVFAFLLYVATFMYVFSTFANILRNKES	7 ratio	0.369 OD	
SNi10 (Assayed as M13 phage clone displaying the insert) peptide: RVGQCTDSDVRRPWARSCAHQGCGAGTRNSHGCITRPLRQASAHAETVESCLAKPHTENSFTNVWKDDKTLDRYANYEGCLWNATGVVVCTGDETQCYGTWVPIGLAIPENEGGGSEGGGSEGGGSEGGGTKPPEYGDTPIPGYTYINPLDGTYPPGTEQNPANPNPSLEESQPLNTFMFQNNRFRNRQGALTVYTGTVTQGTDPVKTYYQYTPVSSKAMYDAYWNGKFRDCAFHSGFNEDPFVCEYQGQSSDLPQPPVNAGGGSGGGSGGGSEGGGSEGGGSEGGGSEGGGSGGGSGSGDFDYEKMANANKGAMTENADENALQSDAKGKLDSVATDYGAAIDGFIGDVSGLANGNGATGDFAGSNSQMAQVGDGDNSPLMNNFRQYLPSLPQSVECRPFVFSAGKPYEFSIDCDKINLFRGVFAFLLYVATFMYVFSTFANILRNKES	11 ratio	0.57 OD	
